Measurements from patent publication US20250051473A1 (IGM BIOSCIENCES, published 2025).
Substitutions are numbered along the chain they refer to.

B1: IgM OKT10-2 (bispecific antibody)
VH: EVQLLESGGGLVQPGGSLRLSCAASGFDFSRSWMNWVRQAPGKGLEWVSEINPDSSTINYATSLKDRFTISRDNSKNTLYLQMNSLRAEDTAVYYCARYGNWFPYWGQGTLVTVSS
VL: DIQMTQSPSSLSASVGDRVTITCKASQNVDTNVAWYQQKPGKAPKALIYSASYRYSGVPSRFSGSGSGTDFTLTISSLQPEDFATYYCQQYDSYPLTFGQGTKVEIK
chain: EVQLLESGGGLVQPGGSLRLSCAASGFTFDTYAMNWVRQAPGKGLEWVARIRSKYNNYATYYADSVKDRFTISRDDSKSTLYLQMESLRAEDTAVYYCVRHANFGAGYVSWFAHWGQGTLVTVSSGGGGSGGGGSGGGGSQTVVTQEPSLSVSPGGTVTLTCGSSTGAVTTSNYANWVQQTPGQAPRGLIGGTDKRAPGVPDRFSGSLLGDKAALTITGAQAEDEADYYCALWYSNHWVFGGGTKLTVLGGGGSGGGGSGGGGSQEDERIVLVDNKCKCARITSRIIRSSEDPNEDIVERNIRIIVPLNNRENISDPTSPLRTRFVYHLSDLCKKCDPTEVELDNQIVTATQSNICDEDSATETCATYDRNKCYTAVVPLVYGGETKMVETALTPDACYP
notes: Constant regions not specified; also called humanized CD38 × CD3 IgM antibody
B2: IgM OKT10-4 (bispecific antibody)
VH: B1 VH
VL: B1 VL
chain: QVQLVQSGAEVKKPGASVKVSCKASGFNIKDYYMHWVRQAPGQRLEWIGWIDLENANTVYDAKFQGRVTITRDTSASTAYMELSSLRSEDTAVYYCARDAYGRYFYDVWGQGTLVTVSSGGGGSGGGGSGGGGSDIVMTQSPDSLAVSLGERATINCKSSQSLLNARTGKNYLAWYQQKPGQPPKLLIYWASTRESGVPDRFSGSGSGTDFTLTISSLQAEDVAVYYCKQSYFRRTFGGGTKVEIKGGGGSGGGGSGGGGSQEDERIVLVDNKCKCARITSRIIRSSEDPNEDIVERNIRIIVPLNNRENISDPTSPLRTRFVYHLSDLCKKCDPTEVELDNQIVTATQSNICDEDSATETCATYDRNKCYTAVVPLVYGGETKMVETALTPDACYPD
notes: as for B1
B3: IgM H-1 (bispecific antibody)
VH: QVPLHQSGPELIKPGASLKISCKASDSAFNNSWMNWVRQRPGKGLEWIGWIYPGDDDTKYNGKFMGKATLTADKSSGTAYMQLSSLTSEDSAVYFCARGRWGMDYWGQGTSVTVSS
VL: DIVMTQFHNFMSTSVGDRVNINCKASQNVVTAVAWYQQKPGQSPKLLIYWASTRHTGVPDRFTGSGSGTDFTLTISNVQSEDLADYFCQQYSNYPFTFGSGTKLEIK
chain: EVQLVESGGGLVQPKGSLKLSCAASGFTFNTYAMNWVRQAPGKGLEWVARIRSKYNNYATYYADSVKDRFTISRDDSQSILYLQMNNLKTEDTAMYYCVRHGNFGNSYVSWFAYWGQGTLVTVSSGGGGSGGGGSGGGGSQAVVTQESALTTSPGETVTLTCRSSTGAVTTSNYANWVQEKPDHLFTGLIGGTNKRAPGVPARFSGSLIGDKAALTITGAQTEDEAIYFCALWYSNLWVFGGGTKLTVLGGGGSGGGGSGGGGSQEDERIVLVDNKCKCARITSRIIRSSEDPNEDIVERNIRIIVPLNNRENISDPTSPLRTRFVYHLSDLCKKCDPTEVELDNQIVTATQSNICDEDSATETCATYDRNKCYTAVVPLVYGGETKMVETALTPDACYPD
notes: Constant regions not specified; also called chimeric CD38 × CD3 IgM antibody of Clone H
B4: IgM C-1 (bispecific antibody)
VH: EVQLQQSGTVLARPGASVKMSCKASGYTFTRYWMHWVKQRPGQDLEWIGGFYPGNSDTRYNQKFKDKAKLTAVTSTSTAYMELSSLTNEDSAVYYCTRGDRHDEGFAYWGQGTLVTVSA
VL: DIQMTQSPASLSASVGETVTITCRASGNIHNYLAWYQQKQGKSPQLLVYNAKTLPDGVPSRFSGSGSGTQYSLKINSLQPEDFGTYYCQNIWTNYTFGGGTKLEIK
chain: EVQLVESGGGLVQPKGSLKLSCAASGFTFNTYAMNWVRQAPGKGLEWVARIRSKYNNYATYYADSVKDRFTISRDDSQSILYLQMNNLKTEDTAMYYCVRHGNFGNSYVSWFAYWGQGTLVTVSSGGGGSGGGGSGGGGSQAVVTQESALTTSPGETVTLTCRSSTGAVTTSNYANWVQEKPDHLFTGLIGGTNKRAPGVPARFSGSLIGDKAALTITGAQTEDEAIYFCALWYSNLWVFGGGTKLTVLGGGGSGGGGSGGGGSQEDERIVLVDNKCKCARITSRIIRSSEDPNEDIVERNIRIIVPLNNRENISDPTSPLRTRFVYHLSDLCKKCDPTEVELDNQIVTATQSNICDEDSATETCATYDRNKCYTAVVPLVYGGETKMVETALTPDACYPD
notes: Constant regions not specified; also called chimeric CD38 × CD3 IgM antibody of Clone C
B5: IgM E-1 (bispecific antibody)
VH: QVQLQQSGAELVRPGTSVKMSCKAAGYTFTNHWIEWVKQRPGHGLEWIGDIFPGGGYTDYNEKFKGKATLTADTSSSTAYMQLSSLTSEDSAIYYCARGRDLAMDYWGQGTSVTVSS
VL: DIQMNQSPSSLSASLGDTITITCHASQNINVWLGWYQQKPGNIPKLLIYKASNLHTGVPSRFSGSGSGTGFTLTISSLQPEDIATYYCQQGQSYPYTFGGGTKLEIK
chain: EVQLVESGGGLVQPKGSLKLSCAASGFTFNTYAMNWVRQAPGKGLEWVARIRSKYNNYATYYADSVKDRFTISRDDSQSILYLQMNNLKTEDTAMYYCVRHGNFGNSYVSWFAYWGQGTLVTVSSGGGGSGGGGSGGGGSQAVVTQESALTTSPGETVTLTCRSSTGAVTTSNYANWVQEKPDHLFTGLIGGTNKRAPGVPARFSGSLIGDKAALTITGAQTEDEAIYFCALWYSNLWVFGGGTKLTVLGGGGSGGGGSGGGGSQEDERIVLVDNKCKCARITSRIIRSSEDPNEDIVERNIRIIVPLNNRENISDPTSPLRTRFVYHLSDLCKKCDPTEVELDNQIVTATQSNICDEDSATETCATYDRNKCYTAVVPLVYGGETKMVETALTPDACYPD
notes: Constant regions not specified; also called chimeric CD38 × CD3 IgM antibody of Clone E
B6: IgM E-4 (bispecific antibody)
VH: QVQLVQSGAEVKKPGSSVKVSCKASGYTFTNHWIEWVRQAPGQGLEWMGDIFPGGGYTDYNEKFKGRVTITADESTSTAYMELSSLRSEDTAVYYCARGRDLAMDYWGQGTLVTVSS
VL: B5 VL with N5T, L15V, T18R, I19V, N42K, I43A, G70D, I83F, G100Q, L104V
chain: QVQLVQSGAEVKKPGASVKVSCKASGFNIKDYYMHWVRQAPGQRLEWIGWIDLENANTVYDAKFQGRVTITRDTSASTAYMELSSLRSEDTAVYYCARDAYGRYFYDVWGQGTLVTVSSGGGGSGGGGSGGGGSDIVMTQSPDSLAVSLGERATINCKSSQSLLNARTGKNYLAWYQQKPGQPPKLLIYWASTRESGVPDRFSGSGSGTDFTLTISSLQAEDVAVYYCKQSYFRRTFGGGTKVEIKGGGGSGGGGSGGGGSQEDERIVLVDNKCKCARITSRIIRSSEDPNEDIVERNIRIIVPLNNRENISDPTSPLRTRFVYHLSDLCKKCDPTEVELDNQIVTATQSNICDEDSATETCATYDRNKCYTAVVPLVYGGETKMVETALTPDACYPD
notes: as for B1
B7: IgM E-2 (bispecific antibody)
VH: B6 VH
VL: B5 VL with N5T, L15V, T18R, I19V, N42K, I43A, G70D, I83F, G100Q, L104V
chain: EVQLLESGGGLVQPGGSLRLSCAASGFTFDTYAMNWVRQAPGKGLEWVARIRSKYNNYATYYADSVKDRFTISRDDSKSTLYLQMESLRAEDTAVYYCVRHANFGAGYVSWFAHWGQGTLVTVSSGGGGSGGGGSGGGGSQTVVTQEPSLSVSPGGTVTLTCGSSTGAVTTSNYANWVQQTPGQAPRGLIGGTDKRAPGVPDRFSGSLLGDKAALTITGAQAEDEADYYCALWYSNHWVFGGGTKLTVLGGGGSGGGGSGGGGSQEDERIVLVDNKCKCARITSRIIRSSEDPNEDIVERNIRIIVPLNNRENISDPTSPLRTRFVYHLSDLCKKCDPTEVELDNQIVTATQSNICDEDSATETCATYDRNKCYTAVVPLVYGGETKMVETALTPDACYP
notes: as for B1
B8: IgM A-1 (bispecific antibody)
VH: QVQLQQSGAELVKPGASVKISCKASGYTFSNYWIEWVKQRPGLGLEWIGDILPGSGTTNYNEKFKGKATFTADTSSNTAYMQLSSLTSEDSAVYYCAGYGNYLWFTYWGQGTLVTVSA
VL: B5 VL with G34S
chain: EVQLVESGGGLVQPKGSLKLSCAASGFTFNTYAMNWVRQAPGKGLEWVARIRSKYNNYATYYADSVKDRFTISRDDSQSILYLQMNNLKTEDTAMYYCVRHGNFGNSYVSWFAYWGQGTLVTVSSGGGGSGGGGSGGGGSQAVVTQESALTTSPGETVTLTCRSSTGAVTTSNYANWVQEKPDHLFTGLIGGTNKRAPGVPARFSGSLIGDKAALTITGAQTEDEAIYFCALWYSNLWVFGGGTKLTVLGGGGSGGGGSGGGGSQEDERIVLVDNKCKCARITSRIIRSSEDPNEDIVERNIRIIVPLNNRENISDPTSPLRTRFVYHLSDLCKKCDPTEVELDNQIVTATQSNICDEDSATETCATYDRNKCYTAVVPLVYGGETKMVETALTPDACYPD
notes: The IgM heavy chain constant region and the light chain constant region used are not specified; also called chimeric CD38 × CD3 IgM antibody of Clone A
B9: IgM B-2 (bispecific antibody)
VH: QVQLVQSGAEVKKPGSSVKVSCKASGYTFTSYNMHWVRQAPGQGLEWMGYIYPGNGGTNYNQKFKGRVTITADESTSTAYMELSSLRSEDTAVYYCARGASMITTGAWFAYWGQGTLVTVSS
VL: DIQMTQSPSSVSASVGDRVTITCRASESLDTYGNSFMYWYQQKPGKAPKLLIYLASSLESGVPSRFSGSGSGTDFTLTISSLQPEDFATYYCHQNHEDPWTFGQGTKVEIK
chain: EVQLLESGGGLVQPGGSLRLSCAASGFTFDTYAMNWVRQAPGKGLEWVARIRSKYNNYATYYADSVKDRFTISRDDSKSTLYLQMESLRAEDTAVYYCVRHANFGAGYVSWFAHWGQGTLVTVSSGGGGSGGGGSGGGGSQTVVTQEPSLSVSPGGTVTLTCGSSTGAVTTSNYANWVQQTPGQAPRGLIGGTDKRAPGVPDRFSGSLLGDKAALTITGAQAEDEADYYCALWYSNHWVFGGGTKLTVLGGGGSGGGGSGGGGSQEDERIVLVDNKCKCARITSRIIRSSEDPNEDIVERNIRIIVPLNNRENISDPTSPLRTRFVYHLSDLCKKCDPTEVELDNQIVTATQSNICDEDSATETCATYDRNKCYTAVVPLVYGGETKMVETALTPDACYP
notes: IgM and light chain constant regions not specified; also called humanized CD38 × CD3 IgM antibody
B10: IgM B-4 (bispecific antibody)
VH: B9 VH
VL: B9 VL
chain: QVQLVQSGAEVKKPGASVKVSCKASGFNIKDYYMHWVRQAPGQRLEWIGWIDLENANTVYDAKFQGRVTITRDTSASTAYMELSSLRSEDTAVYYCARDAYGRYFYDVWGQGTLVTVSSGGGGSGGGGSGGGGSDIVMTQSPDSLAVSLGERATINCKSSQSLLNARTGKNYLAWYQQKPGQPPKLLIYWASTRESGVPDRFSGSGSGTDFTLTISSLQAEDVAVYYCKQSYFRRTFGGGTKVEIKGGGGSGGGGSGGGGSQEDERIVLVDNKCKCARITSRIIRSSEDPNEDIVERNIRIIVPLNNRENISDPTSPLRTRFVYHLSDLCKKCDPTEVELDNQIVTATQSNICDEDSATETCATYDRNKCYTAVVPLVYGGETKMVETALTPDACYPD
notes: as for B1
B11: IgM B-1 (bispecific antibody)
VH: QAYLQQSGAEVVRSGASVKMSCKAAGYTFTSYNMHWVKQTPGQGLEWIGYIYPGNGGTNYNQKFKGKATLTADTSSTTAYMQISSLTSEDSAVYFCARGASMITTGAWFAYWGQGTLVTVSA
VL: NIVLTQSPASLAVSLGQRATISCRASESLDTYGNSFMYWYQQKPGQPPKLLIYLASSLESGVPARFSGSGSRTDFTLTIDPVEADDAATYYCHQNHEDPWTFGGGTKLEIK
chain: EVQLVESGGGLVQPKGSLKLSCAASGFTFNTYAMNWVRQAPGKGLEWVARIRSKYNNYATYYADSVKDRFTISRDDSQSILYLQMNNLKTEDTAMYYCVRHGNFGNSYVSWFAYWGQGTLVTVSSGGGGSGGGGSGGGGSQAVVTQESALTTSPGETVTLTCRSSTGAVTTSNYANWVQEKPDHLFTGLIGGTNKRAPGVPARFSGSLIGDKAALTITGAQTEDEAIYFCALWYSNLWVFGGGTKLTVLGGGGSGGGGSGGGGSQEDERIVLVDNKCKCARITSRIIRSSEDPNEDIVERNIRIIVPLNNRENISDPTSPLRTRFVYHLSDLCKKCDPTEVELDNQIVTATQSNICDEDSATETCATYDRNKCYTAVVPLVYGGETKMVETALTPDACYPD
notes: Constant regions not specified; also called chimeric CD38 × CD3 IgM antibody of Clone B
B12: IgM F-1 (bispecific antibody)
VH: EVQLQQSGAEFVRPGASVKLSCTASGFNIKDSLMHWVKQRPEQGLEWIGWIDPEDDKTKYAPKFQDEATLTADTSSNTAYLHLSSLTSEDTAIYYCARRFLRGFAYWGQGTLVTVSA
VL: DIVMTQSPSSLSVSAGEKVTMSCKSSQSLLNSGNQKNYLAWYQQKPGQPPKLLIYGASTRESGVPDRFTGSGSGTDFTLTISSVQAEDLAVYYCQNDHSYPYTFGGGTKLEIK
chain: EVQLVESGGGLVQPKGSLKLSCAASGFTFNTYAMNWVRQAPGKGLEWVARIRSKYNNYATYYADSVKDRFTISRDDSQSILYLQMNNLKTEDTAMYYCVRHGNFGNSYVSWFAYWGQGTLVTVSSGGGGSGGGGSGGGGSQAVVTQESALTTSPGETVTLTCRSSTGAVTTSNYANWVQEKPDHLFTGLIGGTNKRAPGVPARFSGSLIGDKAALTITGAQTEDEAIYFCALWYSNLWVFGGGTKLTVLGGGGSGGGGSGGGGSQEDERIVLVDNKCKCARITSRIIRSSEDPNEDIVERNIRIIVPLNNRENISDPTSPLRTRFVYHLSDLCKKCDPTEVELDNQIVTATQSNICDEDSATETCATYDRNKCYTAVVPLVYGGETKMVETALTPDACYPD
notes: Constant regions not specified; also called chimeric CD38 × CD3 IgM antibody of Clone F

Experiments:
[1] = target: T1, human CD157 protein (SinoBiological, 10060-H08H) (human, UniProt Q10588 33-292); test: ELISA, antigen coated at 1 µg/mL, serial dilutions of IgM
T1 construct: Bought recombinant protein, coated on the ELISA plate
T1 sequence (looked up): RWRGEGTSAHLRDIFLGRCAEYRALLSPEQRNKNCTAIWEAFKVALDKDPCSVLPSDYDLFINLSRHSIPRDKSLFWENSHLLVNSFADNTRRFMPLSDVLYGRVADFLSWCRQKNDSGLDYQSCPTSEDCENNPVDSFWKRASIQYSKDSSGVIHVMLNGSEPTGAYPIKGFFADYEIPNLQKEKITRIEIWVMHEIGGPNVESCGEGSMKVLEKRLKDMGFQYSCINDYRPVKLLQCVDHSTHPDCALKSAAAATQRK

[2] = target: T2, mouse CD38 (ACROBiosystems, CD8-M5223) (mouse, UniProt P56528 45-304); test: as above
T2 construct: Bought recombinant protein, coated on the ELISA plate
T2 sequence (looked up): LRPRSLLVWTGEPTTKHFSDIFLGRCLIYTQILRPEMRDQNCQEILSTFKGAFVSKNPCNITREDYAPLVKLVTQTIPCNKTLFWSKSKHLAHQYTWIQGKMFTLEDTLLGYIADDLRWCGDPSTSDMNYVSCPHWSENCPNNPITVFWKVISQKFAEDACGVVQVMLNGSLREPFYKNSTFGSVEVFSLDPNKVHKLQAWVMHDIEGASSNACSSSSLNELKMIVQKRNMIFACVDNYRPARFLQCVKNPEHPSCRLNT

[3] = target: T3, recombinant human CD38 extracellular domain protein (ACROBiosystems, Cat #CD8-H5224) (human, UniProt P28907 43-300); test: ELISA, plate coated with 1 ug/mL recombinant human CD38, HRP anti-human kappa detection, chemiluminescence (RLU)
T3 construct: Bought protein; also called recombinant human CD38 protein

[4] = target: T4, recombinant cynomolgus monkey CD38 extracellular domain protein (ACROBiosystems) (cynomolgus monkey, UniProt Q5VAN0 44-301); test: ELISA, plate coated with recombinant cynomolgus CD38 extracellular domain, HRP anti-human kappa detection, chemiluminescence (RLU)
T4 construct: Bought extracellular domain protein; also called cyno CD38; recombinant cyno CD38

[5] = target: cell surface human CD38 on NCI-H929 myeloma cells (human, UniProt P28907 1-300); test: flow cytometry on NCI-H929 cells, AF488 anti-human kappa secondary antibody, median FL-1
[6] = target: T3, recombinant human CD38 extracellular …; test: ELISA, plate coated with recombinant human CD38 extracellular domain, HRP anti-human kappa detection, chemiluminescence (RLU)

Binder | binding result [1] | binding result [2] | binding result [3] | binding result [4] | binding result [5] | binding result [6] | other results
B1 | no binding | no binding |  |  |  |  | EC50 (read off the curve) [3]: ~0.3 µg/mL
B2 | no binding | no binding | binds |  |  |  | 
B3 |  |  |  | binds | binds | binds | 
B4 |  |  |  | binds | binds | binds | 
B5 |  |  |  | binds | binds | binds | 
B6 | no binding | no binding | binds |  |  |  | 
B7 | no binding | no binding | binds |  |  |  | 
B8 |  |  |  |  |  |  | EC50 (read off the curve) [4]: ~0.2 µg/mL; EC50 (read off the curve) [5]: ~2 nM; EC50 (read off the curve) [6]: ~0.2 µg/mL
B9 | no binding | no binding | binds |  |  |  | 
B10 | no binding | no binding | binds |  |  |  | 
B11 |  |  |  | binds | binds | binds | 
B12 |  |  |  | binds | binds | binds | 
